B1: LINE1-full (parent)
chain: UACGUAGGUGGUUUUCCCCUGAUAGUGCUAAGGGGGCCUGGAAGUUUGGACUGGGCAGAGCUCAACACAGCGUGGCAAAGUGGCUGUGGCUAGACUGCCUCUCUGGAUUCCUCGUCACUCAGCAGGGCAUCUCUGAGAGAAAUGCC

This data set covers variants of B1. In words: self-cleavage, relative activity (ratio to wild type); higher = more cleavage; in vitro, sequencing; the parent is a self-cleaving ribozyme.
On to UACGUAGGUGGCUUUCCCCUGAUAGUGCUAAGGGGGCCUGGAAGUUUGGACUGGGCAGAGCUCAACACAGCGUGGCAAAGUGGCUGUGGCUCGACUGCCUCUCUGGAUUCCUCGUCACUCAGCAGGGCAUCUCUGAGAGAAAUGCC, for which the self-cleavage turned out to be 0.81.

As for UACGUAGGUGGCUUUCCCCUGAUAGUGCUAAGGGGGCCUGGAAGUUUGGACUGGGCAGAGCUCAACACAGCGUGGCAAAGUGGCUGUGGCUUGACUGCCUCUCUGGAUUCCUCGUCACUCAGCAGGGCAUCUCUGAGAGAAAUGCC, the self-cleavage was determined as 0.56.

In the case of UACGUAGGUGGCUUUCCCCUGAUAGUGCUAAGGGGGCCUGGAAGUUUGGACUGGGCAGAGCUCAACACAGCGUGGCAAAGUGGCUGUGGCUGGACUGCCUCUCUGGAUUCCUCGUCACUCAGCAGGGCAUCUCUGAGAGAAAUGCC, the self-cleavage stood at 0.09.

UACGUAGGUGGCUUUCCCCUGAUAGUGCUAAGGGGGCCUGGAAGUUUGGACUGGGCAGAGCUCAACACAGCGUGGCAAAGUGGCUGUGGCUAGACUGCCUCUCUGGAUUCCUCGUCACUCAGCAGGGCAUCUCUGAGAGAUAUGCC: the self-cleavage is 0.87.

For UACGUAGGUGGCUUUCCCCUGAUAGUGCUAAGGGGGCCUGGAAGUUUGGACUGGGCAGAGCUCAACACAGCGUGGCAAAGUGGCUGUGGCUAGACUGCCUCUCUGGAUUCCUCGUCACUCAGCAGGGCAUCUCUGAGAGAGAUGCC, the self-cleavage came out at 1.5.

Consider UACGUAGGUGGCUUUCCCCUGAUAGUGCUAAGGGGGCCUGGAAGUUUGGACUGGGCAGAGCUCAACACAGCGUGGCAAAGUGGCUGUGGCUAGACUGCCUCUCUGGAUUCCUCGUCUCUCAGCAGGGCAUCUCUGAGAGAAAUGCC, for which the self-cleavage turned out to be 1.28.

For the variant UACGUAGGUGGCUUUCCCCUGAUAGUGCUAAGGGGGCCUGGAAGUUUGGACUGGGCAGAGCUCAACACAGCGUGGCAAAGUGGCUGUGGCUAGACUGCCUCUCUGGAUUCCUCGUCACUCAGCAGGGCGUCUCUGAGAGAAAUGCC, the self-cleavage is 1.4.

UACGUAGGUGGCUUUCCCCUGAUAGUGCUAAGGGGGCCUGGAAGUUUGGACUGGGCAGAGCUCAACACAGCGUGGCAAAGUGGCUGUGGCUAGACUGCCUCUCUGGCUUCCUCGUCACUCAGCAGGGCAUCUCUGAGAGAAAUGCC: the self-cleavage came out at 1.53.

Take UACGUAGGUGGCUUUCCCCUGAUAGUGCUAAGGGGGCCUGGAAGUUUGGACUGGGCAGAGCUCAACACAGCGUGGCAAAGUGGCUGUGGCUAGACUGCCUCUCUGGUUUCCUCGUCACUCAGCAGGGCAUCUCUGAGAGAAAUGCC: the self-cleavage turned out to be 0.66.

Consider UACGUAGGUGGCUUUCCCCUGAUAGUGCUAAGGGGGCCUGGAAGUUUGGACUGGGCAGAGCUCAACACAGCGUGGCAAAGUGGCUGUGGCUAGUCUGCCUCUCUGGAUUCCUCGUCACUCAGCAGGGCAUCUCUGAGAGAAAUGCC, for which the self-cleavage is 0.38.

With UACGUAGGUGGCUUUCCCCUGAUAGUGCUAAGGGGGCCUGGAAGUUUGGACUGGGCAGAGCUCAACACAGCGUGGCAAAGUGGCUGUGGCUAGACUGCCUCUCUGGAUUCCUCGUCACUCAGCGGGGCAUCUCUGAGAGAAAUGCC, the self-cleavage amounted to 1.23.

With UACGUAGGUGGCUUUCCCCUGAUAGUGCUAAGGGGGCCUGGAAGUUUGGACUGGGCAGAGCUCAACACAGCGUGGCAAAGUGGCUGUGGCUAGACUGCCUCUCUGGAUUCCUCGUCACUCAGCAGGGCAUCUCUGAGAGGAAUGCC, the self-cleavage is 1.2.

Take UACGUAGGUGGCUUUCCCCUGAUAGUGCUAAGGGGGCCUGGAAGUUUGGACUGGGCAGAGCUCAACACAGCGUGGCAAAGUGGCUGUGGCUAGACUGCCUCUCUGGAUUCCUCGUCACUCAGCAGGGCAUCUCUGAGAGUAAUGCC: the self-cleavage was 1.24.

UACGUAGGUGGCUUUCCCCUGAUAGUGCUAAGGGGGCCUGGAAGUUUGGACUGGGCAGAGCUCAACACAGCGUGGCAAAGUGGCUGUGGCUAGACUGCCUCUCUGGAUUCCUCGUCACUCUGCAGGGCAUCUCUGAGAGAAAUGCC: the self-cleavage worked out at 1.11.

With UACGUAGGUGGCUUUCCCCUGAUAGUGCUAAGGGGGCCUGGAAGUUUGGACUGGGCAGAGCUCAACACAGCGUGGCAAAGUGGCUGUGGCUAGACUGCCUCUCUGGAUUCCUCGUCACUCGGCAGGGCAUCUCUGAGAGAAAUGCC, the self-cleavage was 1.74.

In the case of UACGUAGGUGGCUUUCCCCUGAUAGUGCUAAGGGGGCCUGGAAGUUUGGACUGGGCAGAGCUCAACACAGCGUGGCAAAGUGGCUGUGGCUAGACUGCCUCUCUGGAUUCCUCGUCACUCAGCAGGGCAUCUCUGGGAGAAAUGCC, the self-cleavage worked out at 1.41.

UACGUAGGUGGCUUUCCCCUGAUAGUGCUAAGGGGGCCUGGAAGUUUGGACUGGGCAGAGCUCAACACAGCGUGGCAGAGUGGCUGUGGCUAGACUGCCUCUCUGGAUUCCUCGUCACUCAGCAGGGCAUCUCUGAGAGAAAUGCC: the self-cleavage was 0.95.

Turning to UACGUAGGUGGCUUUCCCCUGAUAGUGCUAAGGGGGCCUGGAAGUUUGGACUGGGCAGAGCUCAACACAGCGUGGCAAAGUGGCUGUGGCUAGACUGCCUCUCUGGAUUCCUCGUCACUCAGCAGGGCAUCUCUGAGGGAAAUGCC, the self-cleavage was determined as 1.37.

On to UACGUAGGUGGCUUUCCCCUGAUAGUGCUAAGGGGGCCUGGAAGUUUGGACUGGGCAGAGCUCAACACAGCGUGGCAAAGUGGCUGUGGCUAGACUGCCUCUCUGGAUUCCUCGUCACUCAGCAGGGCAUCUCUGAGAGAAUUGCC, for which the self-cleavage turned out to be 0.91.

For UACGUAGGUGGCUUUCCCCUGAUAGUGCUAAGGGGGCCUGGAAGUUUGGACUGGGCAGAGCUCAACACAGCGUGGCAAAGUGGCUGUGGCUAGACUGCCUCUCUGGAUUCCUCGUCACUCAGCAGGGCAUCUCUGAGAGAACUGCC, the self-cleavage came out at 1.38.

The record behind these values is the RNAGym collection of RNA variant scans (doi:10.7554/elife.90254).
